Experimental findings from US20030152959A1 (WISCONSIN ALUMNI RESEARCH FOUNDATION, published 2003) are described below.

The target of the experiment is T1, estrogen receptor α (ERα) (human, UniProt P03372 1-595).
T1 construct: Used as 35S-methionine-labelled protein from rabbit reticulocyte lysate, as purified recombinant ERα, and in whole-cell extract of transfected COS cells; also called NR3A1
T1 sequence (looked up): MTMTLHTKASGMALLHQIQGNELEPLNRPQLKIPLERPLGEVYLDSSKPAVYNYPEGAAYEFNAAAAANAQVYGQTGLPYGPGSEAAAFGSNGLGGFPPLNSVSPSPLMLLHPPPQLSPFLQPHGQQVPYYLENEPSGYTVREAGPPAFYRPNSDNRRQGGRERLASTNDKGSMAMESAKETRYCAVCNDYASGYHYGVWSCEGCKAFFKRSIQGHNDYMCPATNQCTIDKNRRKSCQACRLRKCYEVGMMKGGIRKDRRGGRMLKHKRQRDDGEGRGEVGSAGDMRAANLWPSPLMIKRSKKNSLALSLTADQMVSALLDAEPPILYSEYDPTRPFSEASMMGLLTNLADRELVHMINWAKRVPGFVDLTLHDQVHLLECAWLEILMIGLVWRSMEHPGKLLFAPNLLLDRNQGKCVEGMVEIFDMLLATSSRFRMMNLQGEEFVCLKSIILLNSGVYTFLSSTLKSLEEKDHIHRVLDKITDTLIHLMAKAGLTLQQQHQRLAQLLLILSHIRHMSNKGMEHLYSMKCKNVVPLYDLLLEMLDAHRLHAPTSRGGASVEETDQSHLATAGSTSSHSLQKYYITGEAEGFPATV
Kind of experiment: GST-fusion protein binding experiment with purified recombinant ERα (data referred to Johnston 1996 thesis).

B1: GST-TFIIB (other, UniProt Q00403 1-316, looked up)
chain: MASTSRLDALPRVTCPNHPDAILVEDYRAGDMICPECGLVVGDRVIDVGSEWRTFSNDKATKDPSRVGDSQNPLLSDGDLSTMIGKGTGAASFDEFGNSKYQNRRTMSSSDRAMMNAFKEITTMADRINLPRNIVDRTNNLFKQVYEQKSLKGRANDAIASACLYIACRQEGVPRTFKEICAVSRISKKEIGRCFKLILKALETSVDLITTGDFMSRFCSNLCLPKQVQMAATHIARKAVELDLVPGRSPISVAAAAIYMASQASAEKRTQKEIGDIAGVADVTIRQSYRLIYPRAPDLFPTDFKFDTPVDKLPQL
notes: not shown: glutathione S-transferase encoded by the pGEX vector
Take B1: the binding result is “binds”.
